Measured values reported in patent US20230322924A1 (Janssen / Centocor, published 2023).
Positions count from the first letter of the chain named.

T1: TMEW1 (TMEFF2-FL-ECD-His-Avitag) (human, UniProt Q9UIK5 41-320)
T1 construct: Human TMEFF2 ECD with C-terminal G3S, 6xHis tag and Avi-tag, all in the entry; also called TMEFF2 ECD
T1 sequence: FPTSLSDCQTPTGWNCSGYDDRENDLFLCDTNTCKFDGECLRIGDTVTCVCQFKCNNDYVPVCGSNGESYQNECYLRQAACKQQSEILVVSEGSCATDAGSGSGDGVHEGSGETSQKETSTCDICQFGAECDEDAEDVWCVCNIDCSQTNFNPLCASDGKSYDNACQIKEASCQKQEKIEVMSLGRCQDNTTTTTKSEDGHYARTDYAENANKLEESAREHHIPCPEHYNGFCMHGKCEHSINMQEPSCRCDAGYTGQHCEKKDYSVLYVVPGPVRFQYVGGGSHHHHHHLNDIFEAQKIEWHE

T2: TMEW19 (spTMEFF2(230-320)G3S-H6) (human, UniProt Q9UIK5 230-320)
T2 construct: Residues 230-320 of human TMEFF2 with G3S and 6xHis tag, all in the entry; also called TMEFF2 membrane proximal region; MP
T2 sequence: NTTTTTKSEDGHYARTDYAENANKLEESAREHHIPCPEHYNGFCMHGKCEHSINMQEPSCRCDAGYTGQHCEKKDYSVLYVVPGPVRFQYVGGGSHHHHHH

T3: Cynomolgous monkey PSMA, full length, on HEK293F cells (Macaca fascicularis (cynomolgus monkey))
T3 construct: stably transfected HEK293F cells; also called cyno PSMA; Cyno-PSMA HEK
T3 chain: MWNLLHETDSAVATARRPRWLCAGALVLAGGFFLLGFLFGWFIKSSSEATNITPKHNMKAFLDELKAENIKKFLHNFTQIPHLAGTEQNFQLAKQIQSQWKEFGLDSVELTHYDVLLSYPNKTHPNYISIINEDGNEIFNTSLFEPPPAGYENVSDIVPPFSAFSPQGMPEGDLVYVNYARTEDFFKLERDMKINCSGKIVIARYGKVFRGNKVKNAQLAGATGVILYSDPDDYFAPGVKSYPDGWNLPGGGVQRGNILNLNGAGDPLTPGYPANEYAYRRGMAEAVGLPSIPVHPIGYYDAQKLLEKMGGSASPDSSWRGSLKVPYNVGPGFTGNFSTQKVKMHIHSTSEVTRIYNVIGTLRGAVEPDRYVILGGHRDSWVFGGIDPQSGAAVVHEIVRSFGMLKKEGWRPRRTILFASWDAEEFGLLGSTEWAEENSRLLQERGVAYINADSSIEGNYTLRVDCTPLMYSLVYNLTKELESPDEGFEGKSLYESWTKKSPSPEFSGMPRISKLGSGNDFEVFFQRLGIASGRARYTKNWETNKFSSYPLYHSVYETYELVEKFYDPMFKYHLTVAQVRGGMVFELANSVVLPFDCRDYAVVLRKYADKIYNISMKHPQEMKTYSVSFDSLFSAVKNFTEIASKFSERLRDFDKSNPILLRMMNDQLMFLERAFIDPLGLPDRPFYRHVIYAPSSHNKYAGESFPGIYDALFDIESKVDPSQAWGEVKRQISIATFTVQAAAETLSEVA

T4: chimpanzee PSMA, full length, on HEK293F cells (Pan troglodytes (chimpanzee))
T4 construct: stably transfected HEK293F cells; also called chimp PSMA; chimp-PSMA HEK
T4 chain: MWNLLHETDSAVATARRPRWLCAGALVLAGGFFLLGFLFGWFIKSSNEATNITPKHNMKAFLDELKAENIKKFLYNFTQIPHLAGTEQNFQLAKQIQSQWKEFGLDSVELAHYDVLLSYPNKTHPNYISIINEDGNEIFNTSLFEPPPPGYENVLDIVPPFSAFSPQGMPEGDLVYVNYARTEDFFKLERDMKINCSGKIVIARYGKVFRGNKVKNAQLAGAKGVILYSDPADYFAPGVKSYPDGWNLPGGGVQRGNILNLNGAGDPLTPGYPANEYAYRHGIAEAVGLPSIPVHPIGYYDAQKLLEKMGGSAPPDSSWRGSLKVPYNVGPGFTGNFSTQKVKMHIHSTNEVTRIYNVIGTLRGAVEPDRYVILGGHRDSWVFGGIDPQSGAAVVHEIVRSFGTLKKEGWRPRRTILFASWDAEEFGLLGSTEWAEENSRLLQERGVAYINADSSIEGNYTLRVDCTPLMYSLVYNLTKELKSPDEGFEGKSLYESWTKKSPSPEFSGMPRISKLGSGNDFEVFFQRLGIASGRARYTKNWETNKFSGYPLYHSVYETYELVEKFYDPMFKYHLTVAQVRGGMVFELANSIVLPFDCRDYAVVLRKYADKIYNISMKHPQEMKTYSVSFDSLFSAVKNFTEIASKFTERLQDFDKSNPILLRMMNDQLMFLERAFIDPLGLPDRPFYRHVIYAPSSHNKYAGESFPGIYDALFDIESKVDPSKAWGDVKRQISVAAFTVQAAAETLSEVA

B1: TMEB674 (antibody, human IgG4 S228P, kappa, F234A L235A, V domains shown)
VH: VQLLESGGGLVQPPGGSLRLSCAASGFTFSSYSMSWVRQAPGKGLEWVSVISGGGSFTSYADSVKGRFTISRDNSNNTLYLQMSSLRAEDTAFYYCARMPLNSPHDCWGQGTLVTVSS
VL: AIQMTQSPSSLSASVGDRVTITCRASQGIRNDLGWYQQKPGKAPKLLIYAASSLQSGVPSRFSGSGSGTDFTLTISSLQPEDFATYYCLQDYNYSLTFGGGTKVEIRR
notes: IgG4 PAA anti-TMEFF2; also called TMEH410/TMEL126
B2: TMEB675 (antibody, human IgG4 S228P, kappa, F234A L235A, V domains shown)
VH: EVQLLESGGGLVQRGGSLRPSCAASGFTFSSYSMSWVRQAPGKGLEWVSVISGSGGFTDYADSVKGRFTISRDNSKNTLYLHMNSLRAEDTAVYYCARMPLNSPHDYWGQGTLVTVSS
VL: B1 VL with S95A, R107K
notes: IgG4 PAA anti-TMEFF2; also called TMEH411/TMEL127
B3: TMEB565 (antibody, human IgG4 S228P, kappa, F234A L235A, V domains shown)
VH: QVQLVQSGAEVKKPGSSVKVSCKASGGTFSSYYISWVRQAPGQGLEWMGGIIPISGRANYAQKFQGRVTITADESTSTAYMELSSLRSEDTAVYYCARDGYSSGRSTTYAFDYWGQGTLVTVSS
VL: EIVLTQSPGTLSLSPGERATLSCRASQSVATYYLAWYQQKPGQAPRLLIYGASSRATGIPDRFSGSGSGTDFTLTISRLEPEDFAVYYCQQYGYNPITFGQGTKVEIKR
notes: IgG4 PAA anti-TMEFF2; also called TMEH396/TMEL111
B4: TMEB570 (antibody, human IgG4 S228P, kappa, F234A L235A, V domains shown)
VH: B3 VH
VL: B3 VL with A30S, S54Y, Y94H, N95S
notes: IgG4 PAA anti-TMEFF2; also called TMEH396/TMEL112
B5: PSMB25 (Fab, V domains shown)
VH: EVQLVQSGAEVKKPGESLKISCKGSGYSFTSYWIGWVRQMPGKGLEWMGIIYPGDSDTRYSPSFQGQVTISADKSISTAYLQWSSLKASDTAMYYCARGWAYDRGLDYWGQGTLVTVSS
VL: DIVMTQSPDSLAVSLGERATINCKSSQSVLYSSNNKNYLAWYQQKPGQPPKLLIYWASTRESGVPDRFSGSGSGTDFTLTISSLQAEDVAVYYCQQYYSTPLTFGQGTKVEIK
notes: mammalian-expressed Fab supernatant (huG1 Fab and human kappa vectors); also called PSMM25
B6: PSMB49 (Fab, V domains shown)
VH: QVQLVQSGAEVKKPGSSVKVSCKASGGTFSSYAISWVRQAPGQGLEWMGGIIPIFGTANYAQKFQGRVTITADESTSTAYMELSSLRSEDTAVYYCARASRVWHASYGYLDYWGQGTLVTVSS
VL: EIVLTQSPATLSLSPGERATLSCRASQSVSKWLAWYQQKPGQAPRLLIYDASNRATGIPARFSGSGSGTDFTLTISSLEPEDFAVYYCQQRFTAPWTFGQGTKVEIK
notes: mammalian-expressed Fab supernatant (huG1 Fab and human kappa vectors); also called PSMM50
B7: PSMB51 (Fab, V domains shown)
VH: QVQLVQSGAEVKKPGSSVKVSCKASGGTFSSYAISWVRQAPGQGLEWMGWIIPYNGNANYAQKFQGRVTITADESTSTAYMELSSLRSEDTAVYYCARVNSAALVWERLDYWGQGTLVTVSS
VL: DIQMTQSPSSLSASVGDRVTITCRASQSIDRWLNWYQQKPGKAPKLLIYAASSLQSGVPSRFSGSGSGTDFTLTISSLQPEDFATYYCQQSPRYPLTFGQGTKVEIK
notes: mammalian-expressed Fab supernatant (huG1 Fab and human kappa vectors); also called PSMM52
B8: PSMB18 (Fab, V domains shown)
VH: B5 VH with G99A, W100Y, A101H, D103S, R104K
VL: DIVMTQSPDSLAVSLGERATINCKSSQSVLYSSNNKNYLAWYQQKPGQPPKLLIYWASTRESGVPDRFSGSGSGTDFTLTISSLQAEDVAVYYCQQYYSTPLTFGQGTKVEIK
notes: mammalian-expressed Fab supernatant (huG1 Fab and human kappa vectors); also called PSMM18

molecular target: T1, TMEW1 (TMEFF2-FL-ECD-His-Avitag); assay: ProteOn SPR, mAb captured on anti-human Fc, TMEFF2 as analyte
Method: (§1) The binding of anti-TMEFF2 mAbs to the ECD and the membrane proximal region of human TMEFF2 was measured by ProteOn SPR (Bio-Rad). The purified mAbs (diluted to a final concentration of 1 μg/ml in PBST) were used as ligands in the assay and were immobilized through Fc capture to Goat Anti-Human (GAH) IgG Fc. For amine coupling of the GAH IgG Fc, a 1:1 mixture of EDC (40 mM) and NHS (10 mM) were mixed immediately prior to injection to activate the chip surface and injected in the vertical orientation. GAH-Fc (at 30 μg/ml) antibody in acetate buffer (pH 5.0) was then flowed over the surface for 300 seconds at 30 μl/min in the vertical orientation. Any remaining reactive carboxyl groups in the surface were subsequently deactivated by injecting 1M Ethanolamine (pH 8.5) in the same orientation. The antibodies were used at a concentration of 1 μg/ml for immobilization. The antibodies were flowed over the surface in the horizontal direction. Human TMEFF2 ECD or the membrane proximal region in 3-fold dilution series of 5 concentrations (highest concentration ranging from 100-600 nM) was flowed in as analyte in the vertical orientation to bind to the captured molecules. A buffer sample was also injected in the 6th channel in the vertical direction to monitor any drift in the baseline signal. The association and dissociation phases for all concentrations were monitored over 3 minutes and 30 (or 15) minutes respectively, at a flow rate of 100 μL/min. The binding surface was regenerated for the next interaction cycle using an 18 second pulse of 0.8% phosphoric acid to remove the bound antigen. The raw data were processed by subtracting two sets of reference data from the response data: 1) the inter-spot signals to correct for the non-specific interactions between the antigen and the empty chip surface; 2) the empty channel signals (where only PBST was flowed over the chip) to correct for non-specific baseline drift.

| Binder | Kd [nM] | koff [s⁻¹] | kon [M⁻¹ s⁻¹] |
| --- | --- | --- | --- |
| B1 | 0.1 | 0.000162 | 2.01e+06 |
| B2 | 0.1 | 0.000153 | 2.65e+06 |
| B3 | 0.02 | 9.13e-06 | 384000 |
| B4 | 0.11 | 5.13e-05 | 464000 |

molecular target: T2, TMEW19 (spTMEFF2(230-320)G3S-H6); assay: as above
Method: as §1

| Binder | Kd [nM] | koff [s⁻¹] | kon [M⁻¹ s⁻¹] |
| --- | --- | --- | --- |
| B1 | 0.2 | 0.000175 | 837000 |
| B2 | 0.2 | 0.000158 | 972000 |
| B3 | 0.01 | 6.39e-06 | 777000 |
| B4 | 0.06 | 4.67e-05 | 762000 |

molecular target: T5, human PSMA on LNCaP cells (human, UniProt Q04609 1-750); assay: flow cytometry, Fab supernatant, LNCaP cells
T5 construct: PSMA of the LNCaP prostate cancer cell line itself
T5 sequence (Q04609 whole entry): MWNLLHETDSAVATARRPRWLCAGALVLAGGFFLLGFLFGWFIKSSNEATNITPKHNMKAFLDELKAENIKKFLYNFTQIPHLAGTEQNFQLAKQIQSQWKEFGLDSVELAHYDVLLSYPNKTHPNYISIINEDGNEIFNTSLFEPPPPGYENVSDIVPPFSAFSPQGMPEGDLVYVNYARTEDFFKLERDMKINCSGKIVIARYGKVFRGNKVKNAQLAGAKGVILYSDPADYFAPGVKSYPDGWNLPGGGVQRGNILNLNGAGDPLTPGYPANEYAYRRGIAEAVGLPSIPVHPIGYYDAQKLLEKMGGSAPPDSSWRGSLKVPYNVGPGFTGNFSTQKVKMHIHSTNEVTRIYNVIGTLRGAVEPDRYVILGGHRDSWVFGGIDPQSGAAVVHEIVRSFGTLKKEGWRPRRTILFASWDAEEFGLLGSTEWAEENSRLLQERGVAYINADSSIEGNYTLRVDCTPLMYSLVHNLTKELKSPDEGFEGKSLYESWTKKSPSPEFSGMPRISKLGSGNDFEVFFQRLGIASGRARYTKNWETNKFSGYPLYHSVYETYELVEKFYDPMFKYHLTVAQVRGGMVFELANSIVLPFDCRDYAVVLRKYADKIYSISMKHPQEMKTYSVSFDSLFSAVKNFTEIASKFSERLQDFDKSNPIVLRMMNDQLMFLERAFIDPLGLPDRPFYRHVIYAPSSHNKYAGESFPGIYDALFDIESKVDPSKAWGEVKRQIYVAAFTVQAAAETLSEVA
Method: (§2) A cell-based binding assay was designed to assess the binding capabilities of individual Fab-his fusions from E. coli supernatants to PSMA-expressing cells. Individual Fab clones were isolated from the round 3 output of all panning experiments following pIX excision. Fab clones were tested for binding to chimp and cyno PSMA expressing HEK cells, as well as to human PSMA on LNCaP cells. Briefly, PSMA expressing cells were aliquoted into a V-bottom plate (CoStar 3357) at a density of 200,000 per well and incubated with (100 μl) supernatants expressing Fab fragments for 1 hour on ice. Cells were washed twice with PBS containing 2% FBS, and stained with a mouse anti-human kappa-RPE antibody (Life Technologies cat #MH10514) for 1 hour on ice. Cells were washed twice with PBS containing 2% FBS and resuspended in […] of the same wash buffer. Plates were read on a BD FACS Array flow cytometer. FACS data was analyzed in FlowJo software by live gating the healthy population of cells using forward scatter and side scatter, and then analyzing the cells within this gate for PE staining. Mean fluorescence intensity (MFI) was calculated and exported into Microsoft Excel. […] Fabs were sequenced and moved forward for cloning into mammalian expression vector for rescreening. True positives were selected from the binding of mammalian cell expressed Fab supernatants to PSMA-expressing cell lines.
(§3) Confirmation of mammalian expressed Fab supernatants was performed using the whole cell binding assay described previously. Binding of Fabs to human PSMA (LNCaP), chimpanzee, and cynomolgous monkey cells was tested, as well as counter screening for no binding to the parental HEK cell line.

| Binder | Geo-MFI |
| --- | --- |
| B5 | 16.9 |
| B6 | 3.22 |
| B7 | 41.5 |

Molecular target: T3, Cynomolgous monkey PSMA, full length, …
Assay: flow cytometry, Fab supernatant, cyno PSMA HEK cells
Method: as §2, with “Individual” for “A cell-based binding assay was designed to assess the binding capabilities of individual Fab-his fusions from E. coli supernatants to PSMA-expressing cells. Individual”
as §3

| Binder | Geo-MFI |
| --- | --- |
| B8 | 696 |
| B5 | 15.2 |
| B6 | 51.6 |
| B7 | 285 |

Molecular target: T4, chimpanzee PSMA, full length, on …
Assay: flow cytometry, Fab supernatant, chimp PSMA HEK cells
Method: as §2, with “Individual” for “A cell-based binding assay was designed to assess the binding capabilities of individual Fab-his fusions from E. coli supernatants to PSMA-expressing cells. Individual”
as §3

| Binder | Geo-MFI |
| --- | --- |
| B8 | 439 |
| B5 | 11.3 |
| B6 | 22 |
| B7 | 231 |
